In patent publication US10201586B2 (dated 2019):
*1 amine or outer side, *2 acyl side, *3 side chain or, on linkers, in order; H or OH if unused. Where a SMILES comes first, the peptide text is derived from it. Bridges are numbered along the chain shown (N, C = ends). [ ]: non-standard residue; d: D form. The star is where a group is joined. ξ: configuration not given here. Succinimide(1-Et,3-yl) = CCN1C(=O)CC(*)C1=O; Bta = N[C@@H](Cc1csc2ccccc12)C(=O)O; Cysteamide = C(CS[*:3])N[*:1]; Tle = CC(C)(C)[C@H](N)C(=O)O; β3hL = CC(C)C[C@H](N)CC(=O)O; β3hK = NCCCC[C@H](N)CC(=O)O; hCys = N[C@@H](CCS)C(=O)O; Nle = CCCC[C@H](N)C(=O)O; ξβ3hV = CC(C)C(N)CC(=O)O; Aib = CC(C)(N)C(=O)O

Tests used:
[1] = biological target: T1, TFPI (Homo sapiens, UniProt P10646); test: IC50 [nm]
Target sequence in this assay (P10646 29-304 limits assumed): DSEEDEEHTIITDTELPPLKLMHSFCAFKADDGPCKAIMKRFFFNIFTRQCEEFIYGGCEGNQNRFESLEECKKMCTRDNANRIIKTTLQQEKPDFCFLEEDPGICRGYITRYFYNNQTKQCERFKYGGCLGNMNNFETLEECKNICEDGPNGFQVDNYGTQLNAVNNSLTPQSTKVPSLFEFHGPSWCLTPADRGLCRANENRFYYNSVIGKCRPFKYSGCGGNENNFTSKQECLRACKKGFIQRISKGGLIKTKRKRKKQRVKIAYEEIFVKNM

[2] = biological target: T1, TFPI; test: IC50 Mean (nM]
Target sequence in this assay (P10646 29-304 limits assumed): as above

[3] = plasma stability in human plasma; assay type: in vitro ADME; settings: for remaining at 24 h: 24 hour incubation in human plasma, quantitative ELISA
[4] = biological target: Tissue Factor Pathway Inhibitor (TFPI) (Homo sapiens, UniProt P10646); test: IC50 ELISA | IC50 [nM]
Tissue Factor Pathway Inhibitor (TFPI), sequence (P10646 29-304 limits assumed): as above

[5] = biological target: T1, TFPI; test: Extrinsic Tenase Inhibition assay | % Inhibition @ 2.5µM
[6] = biological target: T1, TFPI; test: % Inhibition @ 2.5µM

Compound	Extrinsic Tenase Inhibition assay | % Inhibition @ […] [5]	% Inhibition @ […] [6]	further results
CCCC[C@H](NC(=O)CNC(=O)[C@H](CO)NC(=O)[C@H](Cc1ccccc1)NC(=O)[C@H](Cc1c[nH]c2ccccc12)NC(=O)[C@H](CCCCN)NC(C)=O)C(=O)N[C@@H](CCCNC(=N)N)C(=O)N[C@@H](CC(=O)O)C(=O)N[C@@H](CCCC)C(=O)N[C@@H](CCCCN)C(=O)NCC(=O)N[C@H](C(=O)N[C@@H](CCCC)C(=O)N[C@@H](CO)C(=O)N[C@@H](CO)C(=O)N[C@H](C(=O)N[C@@H](Cc1c[nH]c2ccccc12)C(=O)N[C@H](C(=O)N[C@@H](CCCCN)C(=O)N[C@@H](Cc1ccccc1)C(N)=O)C(C)C)C(C)C)[C@@H](C)O [JBT0414 | 1205, Ac-KWFSG-Nle-RD-Nle-KGT-Nle-SSVWVKF-NH2] (Ac-KWFSG[Nle]RD[Nle]KGT[Nle]SSVWVKF-NH2)			IC50 [1]: 5.69 µM
CC(=O)N[C@@H](Cc1ccccc1)C(=O)N[C@@H](CCC(N)=O)C(=O)N[C@@H](CO)C(=O)N[C@@H](CCCCN)C(=O)NCC(=O)N[C@@H](CC(N)=O)C(=O)NC(CC(=O)N[C@@H](Cc1ccccc1)C(=O)N[C@H](C(=O)N[C@@H](Cc1ccccc1)C(=O)NCC(=O)N[C@@H](Cc1ccc(O)cc1)C(=O)N[C@@H](Cc1ccccc1)C(=O)N[C@@H](CCC(=O)O)C(=O)N[C@@H](CCCNC(=N)N)C(=O)N[C@@H](CC(C)C)C(=O)N[C@@H](CCCNC(=N)N)C(=O)N[C@@H](C)C(=O)N[C@@H](CCCCN)C(=O)N[C@@H](CC(C)C)C(N)=O)C(C)C)C(C)C (stereo partly drawn) [JBT0521 | 756] (Ac-FQSKGN[ξβ3hV]FVFGYFERLRAKL-NH2)			IC50 [2]: > 5 µM
CC(=O)N[C@@H](Cc1ccccc1)C(=O)N[C@@H](CCC(N)=O)C(=O)N[C@@H](CO)C(=O)N[C@@H](CCCCN)C(=O)NCC(=O)N[C@@H](CC(N)=O)C(=O)N[C@H](C(=O)N[C@@H](Cc1ccccc1)C(=O)NC(CC(=O)N[C@@H](Cc1ccccc1)C(=O)NCC(=O)N[C@@H](Cc1ccc(O)cc1)C(=O)N[C@@H](Cc1ccccc1)C(=O)N[C@@H](CCC(=O)O)C(=O)N[C@@H](CCCNC(=N)N)C(=O)N[C@@H](CC(C)C)C(=O)N[C@@H](CCCNC(=N)N)C(=O)N[C@@H](C)C(=O)N[C@@H](CCCCN)C(=O)N[C@@H](CC(C)C)C(N)=O)C(C)C)C(C)C (stereo partly drawn) [JBT0523 | 757] (Ac-FQSKGNVF[ξβ3hV]FGYFERLRAKL-NH2)			IC50 [2]: > 5 µM
CC(=O)N[C@@H](Cc1ccccc1)C(=O)N[C@@H](CCC(N)=O)C(=O)N[C@@H](CO)C(=O)N[C@@H](CCCCN)C(=O)NCC(=O)N[C@@H](CC(N)=O)C(=O)N[C@H](C(=O)N[C@@H](Cc1ccccc1)C(=O)N[C@H](C(=O)N[C@@H](Cc1ccccc1)C(=O)NCC(=O)N[C@@H](Cc1ccc(O)cc1)C(=O)N[C@@H](Cc1ccccc1)C(=O)N[C@@H](CCC(=O)O)C(=O)N[C@@H](CCCNC(=N)N)C(=O)N[C@@H](CC(C)C)C(=O)N[C@@H](CCCNC(=N)N)C(=O)N[C@@H](C)C(=O)N[C@@H](CCCCN)CC(=O)N[C@@H](CC(C)C)C(N)=O)C(C)C)C(C)C [JBT0533 | 424] (Ac-FQSKGNVFVFGYFERLRA[β3hK]L-NH2)			IC50 [2]: 0.756 µM
CC(=O)N[C@@H](Cc1ccccc1)C(=O)N[C@@H](CCC(N)=O)C(=O)N[C@@H](CO)C(=O)N[C@@H](CCCCN)C(=O)NCC(=O)N[C@@H](CC(N)=O)C(=O)N[C@H](C(=O)N[C@@H](Cc1ccccc1)C(=O)N[C@H](C(=O)N[C@@H](Cc1ccccc1)C(=O)NCC(=O)N[C@@H](Cc1ccc(O)cc1)C(=O)N[C@@H](Cc1ccccc1)C(=O)N[C@@H](CCC(=O)O)C(=O)N[C@@H](CCCNC(=N)N)C(=O)N[C@@H](CC(C)C)C(=O)N[C@@H](CCCNC(=N)N)C(=O)N[C@@H](C)C(=O)N[C@@H](CCCCN)C(=O)N[C@H](CC(N)=O)CC(C)C)C(C)C)C(C)C [JBT0534 | 204] (Ac-FQSKGNVFVFGYFERLRAK[β3hL]-NH2)			IC50 [2]: 0.084 µM
CC(=O)N[C@@H](Cc1ccccc1)C(=O)N[C@@H](CCC(N)=O)C(=O)N[C@@H](CO)C(=O)N[C@@H](CCCCN)C(=O)N(C)CC(=O)N[C@@H](CC(N)=O)C(=O)N[C@H](C(=O)N[C@@H](Cc1ccccc1)C(=O)N[C@H](C(=O)N[C@@H](CC(=O)O)C(=O)NCC(=O)N[C@@H](Cc1ccc(O)cc1)C(=O)N[C@@H](Cc1ccccc1)C(=O)N[C@@H](CCC(=O)O)C(=O)N[C@@H](CCCNC(=N)N)C(=O)N[C@@H](CC(C)C)C(=O)NC(C)(C)C(=O)N[C@@H](C)C(=O)N[C@@H](CCCCN)C(=O)N[C@@H](CC(C)C)C(N)=O)C(C)C)C(C)C [JBT1584]			Plasma Stability (half life in minutes) human ([3]; human plasma): >2 h
CC(=O)N[C@@H](Cc1ccccc1)C(=O)N[C@@H](CCC(N)=O)C(=O)N[C@@H](CO)C(=O)N[C@@H](CCCCN)C(=O)N1CCC[C@@H]1C(=O)N[C@@H](CC(N)=O)C(=O)N[C@H](C(=O)N[C@@H](Cc1cnc[nH]1)C(=O)N[C@H](C(=O)N[C@@H](CC(=O)O)C(=O)NCC(=O)N[C@@H](Cc1ccc(O)cc1)C(=O)N[C@@H](Cc1ccccc1)C(=O)N[C@@H](CCC(=O)O)C(=O)N[C@@H](CCCNC(=N)N)C(=O)N[C@@H](CC(C)C)C(=O)NC(C)(C)C(=O)N[C@@H](C)C(=O)N[C@@H](CCCCN)C(=O)N[C@@H](CC(C)C)C(N)=O)C(C)(C)C)C(C)C [JBT2431] (Ac-FQSK[dP]NVH[Tle]DGYFERL[Aib]AKL-NH2)			remaining at 24 h [3]: 82%
CC(=O)N[C@@H](Cc1ccccc1)C(=O)N[C@@H](CCC(N)=O)C(=O)N[C@@H](CO)C(=O)N[C@@H](CCCCN)C(=O)N1CCC[C@@H]1C(=O)N[C@@H](CC(N)=O)C(=O)N[C@H](C(=O)N[C@@H](Cc1cnc[nH]1)C(=O)N[C@H](C(=O)N1CCC[C@H]1C(=O)NCC(=O)N[C@@H](Cc1ccc(O)cc1)C(=O)N[C@@H](Cc1ccccc1)C(=O)N[C@@H](CCC(=O)O)C(=O)N[C@@H](CCCNC(=N)N)C(=O)N[C@@H](CC(C)C)C(=O)NC(C)(C)C(=O)N[C@@H](C)C(=O)N[C@@H](CCCCN)C(=O)N[C@@H](CC(C)C)C(N)=O)C(C)C)C(C)C [JBT2432]			remaining at 24 h [3]: 76%
CCN1C(=O)CC(SC[C@H](NC(=O)[C@H]2CCCN2C(=O)[C@H](CCCCN)NC(=O)[C@H](CO)NC(=O)[C@H](CCC(N)=O)NC(=O)[C@H](Cc2ccccc2)NC(C)=O)C(=O)N[C@H](C(=O)N[C@@H](Cc2c[nH]cn2)C(=O)N[C@H](C(=O)N[C@@H](CC(=O)O)C(=O)N[C@H](C)C(=O)N[C@@H](Cc2ccc(O)cc2)C(=O)N[C@@H](Cc2csc3ccccc23)C(=O)N[C@@H](CCC(=O)O)C(=O)N[C@@H](CCCNC(=N)N)C(=O)N[C@@H](CC(C)C)C(=O)NC(C)(C)C(=O)N[C@@H](C)C(=O)N[C@@H](CCCCN)C(=O)N[C@@H](CC(C)C)C(N)=O)C(C)(C)C)C(C)C)C1=O (some centres unmarked) [JBT2502 | 4217, Ac-FQSKp-C(NEM)-VH-Tle-DaY-Bta-ERL-Aib-AKL-NH2] (Ac-FQSK[dP]C(Succinimide(1-Et,3-yl))VH[Tle]D[dA]Y[Bta]ERL[Aib]AKL-NH2)			IC50 [4]: 0.0041 µM
CC(=O)N[C@@H](Cc1ccccc1)C(=O)N[C@@H](CCC(N)=O)C(=O)N[C@@H](CO)C(=O)N[C@@H](CCCCN)C(=O)N1CCC[C@@H]1C(=O)N[C@@H](CC(N)=O)C(=O)N[C@H](C(=O)N[C@@H](Cc1c[nH]cn1)C(=O)N[C@H](C(=O)N1CCC[C@H]1C(=O)N[C@H](C)C(=O)N[C@@H](Cc1ccc(O)cc1)C(=O)N[C@@H](Cc1csc2ccccc12)C(=O)N[C@@H](CCC(=O)O)C(=O)N[C@@H](CCCNC(=N)N)C(=O)N[C@@H](CC(C)C)C(=O)NC(C)(C)C(=O)N[C@@H]1CSSCCNC(=O)[C@H](CC(C)C)NC(=O)[C@H](CCCCN)NC1=O)C(C)C)C(C)C [JBT2517 | 4232, Ac-FQSKpNVHVPaY-Bta-ERL-Aib-cKL-Cea-] (Ac-FQSK[dP]NVHVP[dA]Y[Bta]ERL[Aib][dC]KL-Cysteamide; disulfide 18-C)			IC50 [4]: 0.269 µM
CC(=O)N[C@@H](Cc1ccccc1)C(=O)N[C@@H](CCC(N)=O)C(=O)N[C@@H](CO)C(=O)N[C@@H](CCCCN)C(=O)N1CCC[C@@H]1C(=O)N[C@@H](CC(N)=O)C(=O)N[C@H](C(=O)N[C@@H](Cc1c[nH]cn1)C(=O)N[C@H](C(=O)N1CCC[C@H]1C(=O)N[C@@H]1CSSCC[C@@H](C(=O)N[C@@H](CCCNC(=N)N)C(=O)N[C@@H](CC(C)C)C(=O)NC(C)(C)C(=O)N[C@@H](C)C(=O)N[C@@H](CCCCN)C(=O)N[C@@H](CC(C)C)C(N)=O)NC(=O)[C@H](Cc2csc3ccccc23)NC(=O)[C@H](Cc2ccc(O)cc2)NC1=O)C(C)C)C(C)C [JBT2518 | 4233, Ac-FQSKpNVHVPcY-Bta--Hcy-RL-Aib-AKL-NH2] (Ac-FQSK[dP]NVHVP[dC]Y[Bta][hCys]RL[Aib]AKL-NH2; disulfide 11-14)			IC50 [4]: 0.0108 µM
Ac-SGYASFPLAVQLHVAKRSKEMALARLYYKTS-NH2 (SEQ ID NO: 2008) [JBT0674]	5%	10%	
Ac-SGYASFPLAVQLHVSARSKEMALARLYYKTS-NH2 (SEQ ID NO: 2136) [JBT0675]	7%	0%	
Ac-SGYASFPLAVQLHVSKASKEMALARLYYKTS-NH2 (SEQ ID NO: 2137) [JBT0676]	1%	0%	
Ac-SGYASFPLAVQLHVSKRAKEMALARLYYKTS-NH2 (SEQ ID NO: 2009) [JBT0677]	2%	4%	
Ac-SGYASFPLAVQLHVSKRSKEMALARAYYKTS-NH2 (SEQ ID NO: 2021) [JBT0685]	1%	4%	
Ac-SGYASFPLAVQLHVSKRSKEMALARLAYKTS-NH2 (SEQ ID NO: 2140) [JBT0686]	1%	3%	
